{"source": "patent US20190352418A1", "about": "(AGENUS, published 2019)", "key": {"[1]": {"molecular_target": "T1, recombinant cynomolgus CD73 protein fused with a 6×His-tag (Sino Biological, 90192-C08H) (cynomolgus, UniProt A0A2K5V5U7 27-547)", "T1 sequence": "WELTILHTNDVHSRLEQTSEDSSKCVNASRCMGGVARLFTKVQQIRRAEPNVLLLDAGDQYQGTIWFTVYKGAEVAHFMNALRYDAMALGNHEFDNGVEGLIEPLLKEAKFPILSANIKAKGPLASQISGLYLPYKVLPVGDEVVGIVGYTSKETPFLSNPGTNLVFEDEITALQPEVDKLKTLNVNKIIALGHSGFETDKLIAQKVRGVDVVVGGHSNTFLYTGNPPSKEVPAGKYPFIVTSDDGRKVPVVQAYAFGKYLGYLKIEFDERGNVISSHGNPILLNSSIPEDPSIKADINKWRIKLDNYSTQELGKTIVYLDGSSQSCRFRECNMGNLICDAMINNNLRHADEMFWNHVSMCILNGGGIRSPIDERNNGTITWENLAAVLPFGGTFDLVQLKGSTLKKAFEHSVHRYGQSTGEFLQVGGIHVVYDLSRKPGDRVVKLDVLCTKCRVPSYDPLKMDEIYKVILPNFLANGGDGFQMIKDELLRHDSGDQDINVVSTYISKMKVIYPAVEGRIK", "assay": "SPR; antibody on Protein A chip, CD73-His as analyte", "protocol": "(§1) The sensor chip was regenerated between cycles with a 30-sec injection of 10 mM glycine, pH 1.5. Sensograms were evaluated and fit to a simple Langmuir 1:1 interaction model using the global data analysis option of BiaEvaluation 3.1 software. Data quality was verified by visually inspecting deviations and curve fitting, and by evaluating the parameters of Rmax, Chi2, and Tc."}, "[2]": {"molecular_target": "T2, recombinant human CD73 protein fused with a 6×His-tag (R&D Systems, 5795EN) (human, UniProt P21589 27-547)", "T2 construct": "bought protein; not shown: 6×His-tag", "T2 sequence": "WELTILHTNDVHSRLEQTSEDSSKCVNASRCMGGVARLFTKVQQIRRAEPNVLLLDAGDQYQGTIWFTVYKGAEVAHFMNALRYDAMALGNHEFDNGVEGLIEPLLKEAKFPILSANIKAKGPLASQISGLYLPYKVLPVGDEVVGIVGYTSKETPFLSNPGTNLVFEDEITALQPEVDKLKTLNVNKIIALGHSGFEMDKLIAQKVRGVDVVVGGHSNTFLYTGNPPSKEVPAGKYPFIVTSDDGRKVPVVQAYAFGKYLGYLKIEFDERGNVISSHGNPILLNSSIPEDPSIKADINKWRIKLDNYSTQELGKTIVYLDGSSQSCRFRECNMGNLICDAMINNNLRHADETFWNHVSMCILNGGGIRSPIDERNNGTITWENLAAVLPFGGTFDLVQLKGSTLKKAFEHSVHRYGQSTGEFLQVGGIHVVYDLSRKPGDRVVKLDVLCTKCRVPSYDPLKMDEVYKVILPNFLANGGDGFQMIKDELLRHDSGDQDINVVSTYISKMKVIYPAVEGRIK", "assay": "SPR; antibody on Protein A chip, CD73-His as analyte"}, "human CD73 on cells [3]": {"molecular_target": "T3, human CD73 on cells (human, UniProt P21589 27-549)", "T3 construct": "whole, on cells; also called full-length human CD73 on CHO cells; human CD73 on Jurkat cells", "T3 sequence (looked up)": "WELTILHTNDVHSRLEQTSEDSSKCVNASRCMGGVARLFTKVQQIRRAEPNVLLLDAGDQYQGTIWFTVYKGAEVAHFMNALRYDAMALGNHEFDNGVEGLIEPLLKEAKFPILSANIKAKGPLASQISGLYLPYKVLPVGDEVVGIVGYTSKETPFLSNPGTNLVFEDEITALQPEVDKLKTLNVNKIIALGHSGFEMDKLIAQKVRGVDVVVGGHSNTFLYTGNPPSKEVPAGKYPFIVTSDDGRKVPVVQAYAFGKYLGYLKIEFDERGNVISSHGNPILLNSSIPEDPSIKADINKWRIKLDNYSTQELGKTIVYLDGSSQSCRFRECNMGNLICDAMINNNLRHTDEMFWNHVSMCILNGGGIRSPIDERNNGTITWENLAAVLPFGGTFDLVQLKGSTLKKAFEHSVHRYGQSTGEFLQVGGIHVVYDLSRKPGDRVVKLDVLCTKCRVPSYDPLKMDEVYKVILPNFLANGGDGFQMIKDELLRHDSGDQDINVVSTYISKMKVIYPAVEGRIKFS", "assay": "flow cytometry, CHO cells expressing human CD73 (panel CHO-huCD73), MFI vs antibody concentration", "protocol": "(§2) Briefly, Chinese hamster ovarian (CHO) cells were transduced with lentiviral vectors comprising a mouse, cynomolgus, or human CD73 coding sequence under the control of a CMV promoter, and stable CHO-CD73 cells were generated by antibiotic selection. Expression of CD73 was verified by flow cytometry using positive control antibodies. The stable CHO-CD73 cells were grown in suspension culture in RPMI media supplemented with 10% heat-inactivated FBS at 37° C. and 5% CO₂. […] The cells were then washed twice and analyzed using the LSRFortessa™ flow cytometer (BD Biosciences). FACS data were analyzed using FACS DIVA and WEHI Weasel software, and were plotted with Graphpad Prism software."}, "cynomolgus CD73 on cells [4]": {"molecular_target": "T4, cynomolgus CD73 on cells (cynomolgus, UniProt A0A2K5V5U7 27-549)", "T4 construct": "whole, on cells; also called full-length cynomolgus CD73 on CHO cells; CD73 on cynomolgus monkey CD8+ T cells", "T4 sequence": "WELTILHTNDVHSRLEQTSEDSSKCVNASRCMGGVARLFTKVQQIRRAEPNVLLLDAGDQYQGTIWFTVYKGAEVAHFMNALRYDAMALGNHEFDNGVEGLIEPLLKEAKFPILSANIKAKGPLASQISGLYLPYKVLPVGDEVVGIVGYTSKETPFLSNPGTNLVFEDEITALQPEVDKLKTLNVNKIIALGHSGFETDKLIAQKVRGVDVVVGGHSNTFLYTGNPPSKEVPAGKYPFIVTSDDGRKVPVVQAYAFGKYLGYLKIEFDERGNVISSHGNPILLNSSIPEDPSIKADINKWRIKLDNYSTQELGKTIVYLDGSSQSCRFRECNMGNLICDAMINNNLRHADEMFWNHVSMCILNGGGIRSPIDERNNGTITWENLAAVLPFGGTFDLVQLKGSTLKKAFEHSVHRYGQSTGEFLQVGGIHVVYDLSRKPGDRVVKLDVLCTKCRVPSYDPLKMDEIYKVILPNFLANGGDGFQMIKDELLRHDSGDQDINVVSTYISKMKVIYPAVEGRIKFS", "assay": "flow cytometry, CHO cells expressing cynomolgus CD73, MFI vs antibody concentration"}, "cynomolgus CD73 on cells [5]": {"molecular_target": "T4, cynomolgus CD73 on cells", "assay": "flow cytometry, CHO cells expressing cynomolgus CD73 (panel CHO-cyCD73), MFI vs antibody concentration", "protocol": "as §2"}, "human CD73 on cells [6]": {"molecular_target": "T3, human CD73 on cells", "assay": "cell-based or functional assay"}, "cynomolgus CD73 on cells [7]": {"molecular_target": "T4, cynomolgus CD73 on cells", "assay": "flow cytometry on CHO cells expressing cynomolgus CD73; area under MFI curve", "protocol": "as §2\n(§3) The affinities of the humanized anti-CD73 antibodies to membrane-associated CD73 were determined. Specifically, CHO cells ectopically expressing full-length human or cynomolgus CD73 were generated, and the binding of the antibodies to the cells were examined, using the method as described in Example 6.1.3."}, "human CD73 on cells [8]": {"molecular_target": "T3, human CD73 on cells", "assay": "flow cytometry, CHO cells expressing human CD73, MFI vs antibody concentration"}, "mouse CD73 on cells": {"molecular_target": "T5, mouse CD73 on cells (mouse, UniProt Q61503 29-551)", "T5 construct": "whole, on cells; also called full-length mouse CD73 on CHO cells (CHO-muCD73); CD73 on mouse CD8+ T cells", "T5 sequence (looked up)": "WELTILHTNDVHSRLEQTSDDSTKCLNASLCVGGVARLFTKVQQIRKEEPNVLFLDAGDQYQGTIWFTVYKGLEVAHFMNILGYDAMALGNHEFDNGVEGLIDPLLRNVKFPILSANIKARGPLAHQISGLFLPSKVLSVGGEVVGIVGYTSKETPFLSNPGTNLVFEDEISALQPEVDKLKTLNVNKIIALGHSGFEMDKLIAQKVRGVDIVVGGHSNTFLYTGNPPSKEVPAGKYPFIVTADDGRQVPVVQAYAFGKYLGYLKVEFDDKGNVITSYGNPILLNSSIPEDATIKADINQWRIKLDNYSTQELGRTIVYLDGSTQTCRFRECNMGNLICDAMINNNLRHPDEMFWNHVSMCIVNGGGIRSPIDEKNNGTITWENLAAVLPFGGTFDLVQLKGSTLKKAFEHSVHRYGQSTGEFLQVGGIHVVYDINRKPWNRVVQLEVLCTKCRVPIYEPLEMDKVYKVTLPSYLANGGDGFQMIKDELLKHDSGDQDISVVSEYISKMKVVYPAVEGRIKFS", "assay": "flow cytometry, CHO cells expressing mouse CD73 (panel CHO-muCD73), MFI vs antibody concentration", "protocol": "as §2"}, "human CD73 on cells [9]": {"molecular_target": "T3, human CD73 on cells", "assay": "cell-based or functional assay", "remark": "listed apart in the source"}, "[10]": {"molecular_target": "T6, recombinant mouse CD73 protein fused with a 6×His-tag (R&D Systems, 4488EN) (mouse, UniProt Q61503 29-549, limits assumed)", "T6 sequence (looked up)": "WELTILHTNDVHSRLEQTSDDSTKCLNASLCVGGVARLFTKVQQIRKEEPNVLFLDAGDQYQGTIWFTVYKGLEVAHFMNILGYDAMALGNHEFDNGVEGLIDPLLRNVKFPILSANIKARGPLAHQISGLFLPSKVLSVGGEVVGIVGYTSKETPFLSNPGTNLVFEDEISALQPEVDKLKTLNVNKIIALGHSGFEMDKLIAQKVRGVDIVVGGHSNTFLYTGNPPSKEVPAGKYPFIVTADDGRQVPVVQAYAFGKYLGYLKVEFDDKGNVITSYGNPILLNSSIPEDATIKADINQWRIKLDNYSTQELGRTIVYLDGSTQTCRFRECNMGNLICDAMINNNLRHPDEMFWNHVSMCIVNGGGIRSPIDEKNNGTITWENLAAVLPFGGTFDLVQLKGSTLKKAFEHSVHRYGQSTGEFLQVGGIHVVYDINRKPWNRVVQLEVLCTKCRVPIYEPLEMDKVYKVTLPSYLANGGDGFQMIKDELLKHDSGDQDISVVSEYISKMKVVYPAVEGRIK", "assay": "SPR; antibody on Protein A chip, CD73-His as analyte", "protocol": "as §1"}, "[11]": {"molecular_target": "T1, recombinant cynomolgus CD73 protein …", "assay": "SPR; antibody on Protein A chip, CD73-His as analyte", "remark": "listed apart in the source", "protocol": "as §1"}, "[12]": {"molecular_target": "T2, recombinant human CD73 protein fused …", "assay": "SPR; antibody on Protein A chip, CD73-His as analyte", "remark": "listed apart in the source", "protocol": "as §1"}, "[13]": {"molecular_target": "T2, recombinant human CD73 protein fused …", "assay": "cell-based or functional assay"}, "human CD73 on cells [14]": {"molecular_target": "T3, human CD73 on cells", "assay": "flow cytometry on CHO cells expressing human CD73; area under MFI curve", "protocol": "as §2, §3"}}, "note": "Like-named read-outs stand apart in the source and are kept apart here."}
{"binder": "BA015 (antibody, human IgG1, kappa, N297A, X at position 1 is E or pyroglutamate, chimeric: BA012 murine variable regions, human IgG1 N297A and human Igκ constant regions) heavy: not shown light: DIQMTQSTSSLSASLGDRVTISCRASQDISNYLNWYQQKPDGTVKLLIYYTSRLHSGVPSRFSGSGSGTDYSLTISNLEQEDIATYFCQQGNTLPLTFGAGTKLELKRTVAAPSVFIFPPSDEQLKSGTASVVCLLNNFYPREAKVQWKVDNALQSGNSQESVTEQDSKDSTYSLSSTLTLSKADYEKHKVYACEVTHQGLSSPVTKSFNRGEC", "values": [{"measurement": "Kd", "setting": "[1]", "value": 0.07, "unit": "nM"}, {"measurement": "koff", "setting": "[1]", "value": "8.3e-05", "unit": "s⁻¹"}, {"measurement": "kon", "setting": "[1]", "value": "1.14e+06", "unit": "M⁻¹ s⁻¹"}, {"measurement": "Kd", "setting": "[2]", "value": 0.088, "unit": "nM"}, {"measurement": "koff", "setting": "[2]", "value": 0.0002, "unit": "s⁻¹"}, {"measurement": "kon", "setting": "[2]", "value": "2.27e+06", "unit": "M⁻¹ s⁻¹"}, {"measurement": "EC50 (read off the curve)", "setting": "human CD73 on cells [3]", "value": "~0.2", "unit": "µg/mL"}, {"measurement": "EC50 (read off the curve)", "setting": "cynomolgus CD73 on cells [4]", "value": "~0.2", "unit": "µg/mL"}, {"measurement": "EC50 (read off the curve)", "setting": "cynomolgus CD73 on cells [5]", "value": "~0.5", "unit": "µg/mL"}, {"measurement": "AUC, CD73 enzymatic activity on Jurkat cells expressing human CD73 (FIG. 2A)", "setting": "human CD73 on cells [6]", "value": 239}, {"measurement": "AUC", "setting": "cynomolgus CD73 on cells [7]", "value": 2440}, {"measurement": "EC50 (read off the curve)", "setting": "human CD73 on cells [8]", "value": "~0.1", "unit": "µg/mL"}, {"measurement": "EC50 (read off the curve)", "setting": "mouse CD73 on cells", "value": "~0.4", "unit": "µg/mL"}, {"measurement": "AUC, CD73 enzymatic activity on Jurkat cells expressing human CD73 (FIGS. 6B-6P)", "setting": "human CD73 on cells [9]", "value": 328}, {"measurement": "Kd", "setting": "[10]", "value": 10, "unit": "nM"}, {"measurement": "koff", "setting": "[10]", "value": 0.0006, "unit": "s⁻¹"}, {"measurement": "kon", "setting": "[10]", "value": 61000, "unit": "M⁻¹ s⁻¹"}, {"measurement": "Kd", "setting": "[11]", "value": 0.3, "unit": "nM"}, {"measurement": "koff", "setting": "[11]", "value": "8.7e-05", "unit": "s⁻¹"}, {"measurement": "kon", "setting": "[11]", "value": 310000, "unit": "M⁻¹ s⁻¹"}, {"measurement": "Kd", "setting": "[12]", "value": 0.015, "unit": "nM"}, {"measurement": "koff", "setting": "[12]", "value": 0.00041, "unit": "s⁻¹"}, {"measurement": "kon", "setting": "[12]", "value": "2.8e+07", "unit": "M⁻¹ s⁻¹"}, {"measurement": "AUC, enzymatic activity of immobilized recombinant human CD73 (FIGS. 7B-7P)", "setting": "[13]", "value": 91.2}, {"measurement": "AUC", "setting": "human CD73 on cells [14]", "value": 113000}]}
